Substrate: Cc1cc(=O)oc2cc(O[C@@H]3OC[C@@H](O[C@@H]4OC[C@@H](O)[C@H](O)[C@H]4O)[C@H](O)[C@H]3O)ccc12
Assay: Substrate hydrolysis kinetics
Assay type: biochemical, A. aculeatus
Settings: other: fluorogenic 4MU substrate, pH 5.0

B1: …_127619 (Aspergillus aculeatus ATCC 16872) (protein)
chain: VGLDQAAVAKGLQYFGTATDNPELTDIPYVTQLNNTADFGQITPGNSMKWDATEPSQGTFTFTNGDVIADLAEGNGQYLRCHTLVWYNQLPSWVTSGTWTNATLTAALKNHITNVVSHYKGKCLHWDVVNEALNDDGTYRTNIFYTTIGEAYIPIAFAAAAAADPDAKLFYNDYNLEYGGAKAASARAIVQLVKNAGAKIDGVGLQAHFSVGTVPSTSSLISVLQSFTALGVEVAYTEADVRILLPTTATTLAQQSSDFQALVQSCVQTTGCVGFTIWDWTDKYSWVPSTFSGYGAALPWDENLVKKPAYNGLLAG
Km: 279 µM

Source: paper PMC6598175
